Data as given in patent US20070253958A1 (Bristol-Myers Squibb, published 2007).

T1: CD20 (human, UniProt P11836)
T1 construct: full length, on cells; also called CD20 on cells; Raji cells expressing CD20
T1 sequence (membrane protein on cells, looked up): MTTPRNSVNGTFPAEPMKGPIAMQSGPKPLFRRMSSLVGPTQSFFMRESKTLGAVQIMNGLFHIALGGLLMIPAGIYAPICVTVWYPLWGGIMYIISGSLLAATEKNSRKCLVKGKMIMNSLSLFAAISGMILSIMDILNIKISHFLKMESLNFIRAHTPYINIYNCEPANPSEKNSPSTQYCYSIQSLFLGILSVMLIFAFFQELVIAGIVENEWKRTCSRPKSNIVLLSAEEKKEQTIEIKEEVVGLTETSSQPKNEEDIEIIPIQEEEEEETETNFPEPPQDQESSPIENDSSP

T2: FcγRIIa-R131 (CD32, arginine at position 131), on cells (human, UniProt P12318 34-317)
T2 construct: whole, on cells; A database entry may carry H at that site, so the arginine must be set by hand; also called FcγRIIa-R131 allotype; IIA1.6 FcγRIIa-R131 transfectants
T2 sequence (looked up): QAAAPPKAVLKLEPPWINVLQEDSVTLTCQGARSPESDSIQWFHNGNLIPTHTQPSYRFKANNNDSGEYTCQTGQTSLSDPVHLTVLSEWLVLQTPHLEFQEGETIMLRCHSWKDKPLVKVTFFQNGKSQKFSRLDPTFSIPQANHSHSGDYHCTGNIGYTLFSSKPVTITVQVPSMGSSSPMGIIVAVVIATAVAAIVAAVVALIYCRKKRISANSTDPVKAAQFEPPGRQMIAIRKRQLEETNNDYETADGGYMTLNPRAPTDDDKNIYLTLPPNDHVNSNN

B1: human monoclonal antibody MDE-8 (whole IgG) (antibody, V domains shown)
VH: QVHLVESGGGVVQPGRSLRLSCAASGFTFSSYGMHWVRQAPGKGLEWVAVIWYDGSNYYYTDSVKGRFTISRDNSKNTLYLQMNSLRAEDTAVYYCARDLGAAASDYWGQGTLVTVSS
VL: AIQLTQSPSSLSASVGDRVTITCRASQGINSALAWYQQKPGKAPKLLIYDASSLESGVPSRFSGSGSGTDFTLTISSLQPEDFATYYCQQFNSYPHTFGQGTKLEIK
notes: Hybridoma-derived fully human IgG, kappa from HuMab HCo7 mice; a human IgG1 mAb served as its isotype control; also called HuMAb MDE-8; MDE-8 IgG

Key:
FcγRI (CD64), on cells [1] = molecular target: T3, FcγRI (CD64), on cells (UniProt P12314 16-374, limits assumed); test: cell-based or functional assay
T3 construct: whole, on cells
T3 sequence (P12314 16-374 limits assumed): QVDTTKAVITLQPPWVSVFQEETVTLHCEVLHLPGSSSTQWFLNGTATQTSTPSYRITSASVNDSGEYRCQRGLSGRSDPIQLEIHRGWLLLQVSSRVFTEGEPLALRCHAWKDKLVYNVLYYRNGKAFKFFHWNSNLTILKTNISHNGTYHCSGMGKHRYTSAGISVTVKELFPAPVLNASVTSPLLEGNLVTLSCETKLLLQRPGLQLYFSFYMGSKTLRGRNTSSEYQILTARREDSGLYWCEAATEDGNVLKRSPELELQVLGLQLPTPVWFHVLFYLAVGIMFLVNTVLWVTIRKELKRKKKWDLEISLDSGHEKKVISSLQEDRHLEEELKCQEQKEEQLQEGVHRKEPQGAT

CD20 = molecular target: T1, CD20; test: flow cytometry on CD20-expressing cells, mean fluorescence intensity; concentration not given
FcγRI (CD64), on cells [2] = molecular target: T3, FcγRI (CD64), on cells; test: flow cytometry on CD64-expressing cells, mean fluorescence intensity; concentration not given
[3] = molecular target: T4, FcγRIIIa (CD16), on cells (UniProt P08637 17-254, limits assumed); test: flow cytometry on CD16A-expressing cells, mean fluorescence intensity; concentration not given
T4 construct: whole, on cells; also called CD16A
T4 sequence (P08637 17-254 limits assumed): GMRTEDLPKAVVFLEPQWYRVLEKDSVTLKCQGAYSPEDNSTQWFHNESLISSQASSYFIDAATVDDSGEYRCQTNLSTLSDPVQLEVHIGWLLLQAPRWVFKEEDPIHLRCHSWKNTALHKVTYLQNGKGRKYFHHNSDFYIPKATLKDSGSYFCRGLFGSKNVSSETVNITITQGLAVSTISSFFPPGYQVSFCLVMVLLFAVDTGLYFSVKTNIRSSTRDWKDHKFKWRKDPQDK

[4] = molecular target: T5, FcαR (CD89), on transfected IIA1.6 cells (UniProt P24071 22-287, limits assumed); test: flow cytometry on CD89-transfected cells, mean fluorescence intensity; concentration not given
T5 construct: whole, on cells; also called Fcα receptor; FcαRI
T5 sequence (P24071 22-287 limits assumed): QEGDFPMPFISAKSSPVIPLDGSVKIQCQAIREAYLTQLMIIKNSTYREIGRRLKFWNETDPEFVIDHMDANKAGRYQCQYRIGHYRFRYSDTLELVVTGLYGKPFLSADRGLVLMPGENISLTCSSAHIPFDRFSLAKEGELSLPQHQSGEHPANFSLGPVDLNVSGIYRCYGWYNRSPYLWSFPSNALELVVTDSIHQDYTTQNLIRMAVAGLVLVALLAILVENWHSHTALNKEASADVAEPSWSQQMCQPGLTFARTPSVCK

[5] = molecular target: T2, FcγRIIa-R131 (CD32, arginine at …); test: flow cytometry on transfected cells, mean fluorescence intensity; antibody concentration not given

Row | Molecule | reduction of FcγRI membrane expression (FcγRI (CD64), on cells [1]) [%] | binding result (CD20) | binding result (FcγRI (CD64), on cells [2]) | binding result [3] | binding result [4] | binding result [5]
1 | humanized CD64 mAb H22 (antibody) | 60 | – | – | – | – | –
2 | B1 | – | no binding | no binding | no binding | no binding | binds
